This is an account of results in article PMC10053881 (Pharmaceutics, 2023).

In this data set the test system is gastric NET with lymph node and hepatic metastases. As to the kind of experiment: PET/CT imaging in a NET patient. It is filed as in vivo, human. Conditions: [68Ga]Ga-DOTA-NOC 1 h pi, [68Ga]Ga-DATA5m-LM4 10 min–3 h pi. The text has this:
After a preceding PET/CT imaging with [^68Ga]Ga-DOTA-NOC ([^68Ga]Ga-DOTA-[1-Nal^3]octreotide), the patient underwent first PET/CT with [^68Ga]Ga-DATA^5m-LM4 on a dedicated GE Discovery 710 × 128 Slice PET/CT Scanner (GE HealthCare Technologies Inc.,/GE Healthcare, Chicago, IL, USA), with a 40 mm detector at a 0.35 s rotation speed and a 128-slice CT scanner. The images were corrected for random and scatter counts, decay correction and dead time correction. PET images were reconstructed with iterative reconstruction using ordered subset expectation maximization algorithm (OSEM) (2 iterations, 24 subsets). They were processed and analyzed with a dedicated commercially available workstation (GE Xeleris). Further details on the patient preparation, scan and data acquisition protocol are included in the Supplementary Materials.
Radiosynthesis of [68Ga]Ga-DATA5m-LM4 and [177Lu]Lu-AAZTA5-LM4 for Patient […]
For radiolabeling of DATA5m-LM4 with Ga-68, [68Ga]GaCl3 (200 MBq) obtained from a commercial [68Ge]Ge/[68Ga]Ga-generator (ITM Isotope Technologies Munich SE, Garching, Germany) was added in a vial containing a solution of DATA5m-LM4 (50 µg, 32.5 nmol) in 500 µL of 1 M sodium acetate buffer pH 4.5. The reaction mixture was heated for 15 min at 95 °C, affording [68Ga]Ga-DATA5m-LM4 in a radiochemical purity […]

“Also recorded” adds a separate entry of the source.

With “[^68Ga]Ga-DOTA-[1-Nal^3]octreotide [[^68Ga]Ga-DOTA-NOC]”, the “uptake in liver metastases on PET/CT” value is given as “mild to negligible uptake; also recorded: weak uptake”.
